Paper PMC9784857, “In Vitro Characterization of a Nuclear Receptor-like Domain of the Xylanase Regulator 1 from Trichoderma reesei” (Journal of Fungi, 2022)

Key:
[1] = target: T1, Xyr1 (Xylanase regulator 1) (Trichoderma reesei, UniProt G0RLE8); test: far-UV circular dichroism, ligand-induced conformational change; type: binding; settings: 250 nM protein, buffer A (50 mM Tris, 200 mM NaCl, 50 mM NaH2PO4, 10% glycerol) pH 7.5, 22 °C; sugar 40-1000 nM; no added DNA; proposed allosteric
T1 construct: full coding region, codon-optimised synthetic gene, C-terminal His6 tag (not reported cut), pET28a (pTS1), E. coli BL21(DE3)pLysS; 105 kDa; monomer and homodimer
Description: far-UV circular dichroism, ligand-induced conformational change on Xyr1 (Xylanase regulator 1) | All three carbohydrates cause a change in the Xyr1 secondary structure

[2] = target: Xylanase regulator 1 with the A824V mutation (Xyr1_(A824V)) (Trichoderma reesei) (UniProt G0RLE8); test: native gel or EMSA; blue native PAGE (BN-PAGE), 200 nM of each protein, non-denaturing conditions; second dimension SDS-PAGE, identity confirmed by Western blot; also run with target DNA or carbohydrates as controls (Figure S1)
[3] = target: T1, Xyr1 (Xylanase regulator 1); test: far-UV circular dichroism, ligand-induced conformational change; type: binding; settings: 250 nM protein, buffer A (50 mM Tris, 200 mM NaCl, 50 mM NaH2PO4, 10% glycerol) pH 7.5, 22 °C, sugar 40-1000 nM, no added DNA, proposed allosteric
[4] = target: the molecule itself; test: native gel or EMSA; blue native PAGE (BN-PAGE), 200 nM of each protein, non-denaturing conditions; second dimension SDS-PAGE, identity confirmed by Western blot; also run with target DNA or carbohydrates as controls (Figure S1)
[5] = target: T2, Xyr1 (Xylanase regulator 1) (Trichoderma reesei, UniProt G0RLE8 1-920); test: CD spectroscopy titration (222 nm); no carbohydrate; Engel fit, n = 2; Buffer A: 50 mM Tris, 200 mM NaCl, 50 mM NaH2PO4, 10% glycerol, pH 7.5, 22 °C; CD: 250 nM protein, DNA 0-900 nM; EMSA: 15 ng probe, 10 min, 0.2 µg/µL p(dIdC) plus unspecific duplex CKT067/CKT068; settings: protein: recombinant; tags: C-terminal His6; chain copies: 2; blunt
T2 sequence: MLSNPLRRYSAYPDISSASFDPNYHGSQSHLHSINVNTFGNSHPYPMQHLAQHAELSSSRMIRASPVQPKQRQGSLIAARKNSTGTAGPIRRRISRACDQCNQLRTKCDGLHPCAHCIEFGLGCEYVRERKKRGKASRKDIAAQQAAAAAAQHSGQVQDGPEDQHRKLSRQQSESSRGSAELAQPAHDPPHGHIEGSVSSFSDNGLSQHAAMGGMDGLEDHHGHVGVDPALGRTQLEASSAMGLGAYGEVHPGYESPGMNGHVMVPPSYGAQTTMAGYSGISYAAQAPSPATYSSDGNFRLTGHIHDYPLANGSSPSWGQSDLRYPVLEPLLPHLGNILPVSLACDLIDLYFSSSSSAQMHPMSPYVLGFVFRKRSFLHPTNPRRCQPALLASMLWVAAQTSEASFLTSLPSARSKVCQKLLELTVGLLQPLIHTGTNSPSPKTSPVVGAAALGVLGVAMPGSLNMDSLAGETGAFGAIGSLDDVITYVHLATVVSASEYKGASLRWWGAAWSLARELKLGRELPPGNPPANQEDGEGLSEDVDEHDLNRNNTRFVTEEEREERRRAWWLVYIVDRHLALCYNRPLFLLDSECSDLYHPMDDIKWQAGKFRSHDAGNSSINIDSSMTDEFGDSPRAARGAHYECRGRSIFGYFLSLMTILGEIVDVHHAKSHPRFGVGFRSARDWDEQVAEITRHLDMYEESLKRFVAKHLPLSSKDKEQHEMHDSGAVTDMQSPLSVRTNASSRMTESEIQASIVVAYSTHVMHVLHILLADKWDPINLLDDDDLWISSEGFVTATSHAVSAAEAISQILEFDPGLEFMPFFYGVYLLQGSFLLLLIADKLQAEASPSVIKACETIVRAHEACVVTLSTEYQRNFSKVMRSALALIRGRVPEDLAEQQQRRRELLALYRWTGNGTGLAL

Xyr1A824V = target: T3, Xyr1A824V (Trichoderma reesei, UniProt G0RLE8 1-920, A804V); test: as above; settings: protein: recombinant; tags: C-terminal His6; chain copies: 2; blunt
T3 sequence: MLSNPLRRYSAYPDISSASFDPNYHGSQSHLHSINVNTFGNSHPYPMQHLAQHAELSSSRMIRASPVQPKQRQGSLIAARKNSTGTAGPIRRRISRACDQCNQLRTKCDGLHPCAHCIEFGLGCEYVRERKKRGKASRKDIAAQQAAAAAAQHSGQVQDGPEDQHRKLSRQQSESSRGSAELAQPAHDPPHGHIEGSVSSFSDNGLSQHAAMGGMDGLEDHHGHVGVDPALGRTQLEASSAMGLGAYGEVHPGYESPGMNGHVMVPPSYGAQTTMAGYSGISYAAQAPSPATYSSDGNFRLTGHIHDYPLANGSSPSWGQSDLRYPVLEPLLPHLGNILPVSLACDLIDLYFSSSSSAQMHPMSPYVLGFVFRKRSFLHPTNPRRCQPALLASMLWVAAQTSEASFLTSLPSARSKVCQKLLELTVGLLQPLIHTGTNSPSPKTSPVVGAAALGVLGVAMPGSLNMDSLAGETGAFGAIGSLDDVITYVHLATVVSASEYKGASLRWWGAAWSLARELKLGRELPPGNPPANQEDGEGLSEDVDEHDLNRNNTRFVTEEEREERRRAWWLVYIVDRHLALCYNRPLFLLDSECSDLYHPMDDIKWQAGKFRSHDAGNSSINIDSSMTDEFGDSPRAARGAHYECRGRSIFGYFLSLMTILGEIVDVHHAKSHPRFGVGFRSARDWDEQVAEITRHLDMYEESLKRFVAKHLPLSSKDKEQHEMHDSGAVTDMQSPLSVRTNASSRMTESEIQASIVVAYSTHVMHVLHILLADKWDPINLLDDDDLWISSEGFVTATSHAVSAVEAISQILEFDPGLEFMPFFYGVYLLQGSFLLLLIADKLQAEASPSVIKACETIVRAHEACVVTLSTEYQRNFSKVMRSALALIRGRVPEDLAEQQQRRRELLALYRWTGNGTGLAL

O=P(O)(O)OC[C@H]1OC(O)[C@H](O)[C@@H](O)[C@@H]1O (stereo partly drawn) [D-glucose-6-phosphate]
loss of α-helix structures [1]: 21%

Xylanase regulator 1 with the A824V mutation (Xyr1_(A824V)) (from UniProt G0RLE8 1-920)
stoichiometry N [2]: 2

OC[C@H]1O[C@@H](O[C@H]2C(O)O[C@H](CO)[C@@H](O)[C@@H]2O)[C@H](O)[C@@H](O)[C@@H]1O (stereo partly shown) [sophorose]
loss of α-helix structures (up to) ([3]; spectra not shown, stated highly similar to D-xylose): 31%

OC1OC[C@@H](O)[C@H](O)[C@H]1O (stereo partly drawn) [D-xylose]
loss of α-helix structures (up to) [3]: 31%

B1: Xylanase regulator 1 (Xyr1), wild type (natural protein)
chain: MLSNPLRRYSAYPDISSASFDPNYHGSQSHLHSINVNTFGNSHPYPMQHLAQHAELSSSRMIRASPVQPKQRQGSLIAARKNSTGTAGPIRRRISRACDQCNQLRTKCDGLHPCAHCIEFGLGCEYVRERKKRGKASRKDIAAQQAAAAAAQHSGQVQDGPEDQHRKLSRQQSESSRGSAELAQPAHDPPHGHIEGSVSSFSDNGLSQHAAMGGMDGLEDHHGHVGVDPALGRTQLEASSAMGLGAYGEVHPGYESPGMNGHVMVPPSYGAQTTMAGYSGISYAAQAPSPATYSSDGNFRLTGHIHDYPLANGSSPSWGQSDLRYPVLEPLLPHLGNILPVSLACDLIDLYFSSSSSAQMHPMSPYVLGFVFRKRSFLHPTNPRRCQPALLASMLWVAAQTSEASFLTSLPSARSKVCQKLLELTVGLLQPLIHTGTNSPSPKTSPVVGAAALGVLGVAMPGSLNMDSLAGETGAFGAIGSLDDVITYVHLATVVSASEYKGASLRWWGAAWSLARELKLGRELPPGNPPANQEDGEGLSEDVDEHDLNRNNTRFVTEEEREERRRAWWLVYIVDRHLALCYNRPLFLLDSECSDLYHPMDDIKWQAGKFRSHDAGNSSINIDSSMTDEFGDSPRAARGAHYECRGRSIFGYFLSLMTILGEIVDVHHAKSHPRFGVGFRSARDWDEQVAEITRHLDMYEESLKRFVAKHLPLSSKDKEQHEMHDSGAVTDMQSPLSVRTNASSRMTESEIQASIVVAYSTHVMHVLHILLADKWDPINLLDDDDLWISSEGFVTATSHAVSAAEAISQILEFDPGLEFMPFFYGVYLLQGSFLLLLIADKLQAEASPSVIKACETIVRAHEACVVTLSTEYQRNFSKVMRSALALIRGRVPEDLAEQQQRRRELLALYRWTGNGTGLAL
stoichiometry N [4]: 2

B2: xyn1 URR fragment (-430 to -396), Pxyn1f/Pxyn1r (dsDNA)
DNA 1: TTGGCAGGCTAAATGCGACATCTTAGCCGGATGCA
DNA 2: TGCATCCGGCTAAGATGTCGCATTTAGCCTGCCAA
Kd [5]: 128 nM | Kd (Xyr1A824V): 523 nM
